# Assay results from the RNAGym collection of RNA variant scans (doi:10.7554/elife.90254).
# B1: LINE1-full (parent)
# chain: UACGUAGGUGGUUUUCCCCUGAUAGUGCUAAGGGGGCCUGGAAGUUUGGACUGGGCAGAGCUCAACACAGCGUGGCAAAGUGGCUGUGGCUAGACUGCCUCUCUGGAUUCCUCGUCACUCAGCAGGGCAUCUCUGAGAGAAAUGCC
# Variants of: B1
# Test: self-cleavage, relative activity (ratio to wild type); higher = more cleavage; in vitro, sequencing; the parent is a self-cleaving ribozyme
row,Variant,self-cleavage
1,UACGUAGGUGGUUUUCCCCUGAUAGUGCUAAGGGGGCCUGGAAGUUUGGACUGGGCAGAGCUCAACACAGCGUGGCAAAGUGGCUGUGGCUAGACUGCCUCUCUGGAUUCCUCGUCACUCAGCAGGGCGUCUCUGAGAGUAAUGCC,1.8
2,UACGUAGGUGGUUUUCCCCUGAUAGUGCUAAGGGGGCCUGGAAGUUUGGACUGGGCAGAGCUCAACACAGCGUGGCAAAGUGGCUGUGGCUAGACUGCCUCUCUGGAUUCCUCGUCACUCAGCAGGGCGUCUCUGAGAGACAUGCC,2.06
3,UACGUAGGUGGUUUUCCCCUGAUAGUGCUAAGGGGGCCUGGAAGUUUGGACUGGGCAGAGCUCAACACAGCGUGGCAAAGUGGCUGUGGCUAGACUGCCUCUCUGGAUUCCUCGUCACUCAGCAGGGCGUCUCUGAGAGAAGUGCC,1.67
4,UACGUAGGUGGUUUUCCCCUGAUAGUGCUAAGGGGGCCUGGAAGUUUGGACUGGGCAGAGCUCAACACAGCGUGGCAAAGUGGCUGUGGCUAGACUGCCUCUCUGGAUUCCUCGUCACUCAGCAGGGCGUUUCUGAGAGAAAUGCC,0.92
5,UACGUAGGUGGUUUUCCCCUGAUAGUGCUAAGGGGGCCUGGAAGUUUGGACUGGGCAGAGCUCAACACAGCGUGGCAAAGUGGCUGUGGCUAGACUGCCUCUCUGGAUUCCUCGUCACUCAGCAGGGCGUCUCUGAGAGAAAUGGC,1.65
6,UACGUAGGUGGUUUUCCCCUGAUAGUGCUAAGGGGGCCUGGAAGUUUGGACUGGGCAGAGCUCAACACAGCGUGGCAAAGUGGCUGUGGCUAGACUGCCUCUCUGGAUUCCUCGUCACUCAGCAGGGCGUCUCUGAGAGAAAUGUC,0.99
7,UACGUAGGUGGUUUUCCCCUGAUAGUGCUAAGGGGGCCUGGAAGUUUGGACUGGGCAGAGCUCAACACAGCGUGGCAAAGUGGCUGUGGCUAGACUGCCUCUCUGGAUUCCUCGUCACUCAGCAGGGCGUCUCUGAGAGAAAUGCU,1.59
8,UACGUAGGUGGUUUUCCCCUGAUAGUGCUAAGGGGGCCUGGAAGUUUGGACUGGGCAGAGCUCAACACAGCGUGGCAAAGUGGCUGUGGCUAGACUGCCUCUCUGGAUUCCUCGUCACUCAGCAGGGCGUCUCUAAGAGAAAUGCC,1.63
9,UACGUAGGUGGUUUUCCCCUGAUAGUGCUAAGGGGGCCUGGAAGUUUGGACUGGGCAGAGCUCAACACAGCGUGGCAAAGUGGCUGUGGCUAGACUGCCUCUCUGGAUUCCUCGUCACUCAGCAGGGCGUCACUGAGAGAAAUGCC,1.54
10,UACGUAGGUGGUUUUCCCCUGAUAGUGCUAAGGGGGCCUGGAAGUUUGGACUGGGCAGAGCUCAACACAGCGUGGCAAAGUGGCUGUGGCUAGACUGCCUCUCUGGAUUCCUCGUCACUCAGCAGGGCGUCUCGGAGAGAAAUGCC,1.65
11,UACGUAGGUGGUUUUCCCCUGAUAGUGCUAAGGGGGCCUGGAAGUUUGGACUGGGCAGAGCUCAACACAGCGUGGCAAAGUGGCUGUGGCUAGACUGCCUCUCUGGAUUCCUCGUCACUCAGCAGGGCUUCUCUGAGAGAAAUGCC,1.4
12,UACGUAGGUGGUUUUCCCCUGAUAGUGCUAAGGGGGCCUGGAAGUUUGGACUGGGCAGAGCUCAACACAGCGUGGCAAAGUGGCUGUGGCUAGACUGCCUCUCUGGAUUCCUCGUCACUCAGCAGGGCUUCUCUGAGAGUAAUGCC,0.88
13,UACGUAGGUGGUUUUCCCCUGAUAGUGCUAAGGGGGCCUGGAAGUUUGGACUGGGCAGAGCUCAACACAGCGUGGCAAAGUGGCUGUGGCUAGACUGCCUCUCUGGAUUCCUCGUCACUCAGCAGGGCUUCUCUGAGAGAGAUGCC,1.34
14,UACGUAGGUGGUUUUCCCCUGAUAGUGCUAAGGGGGCCUGGAAGUUUGGACUGGGCAGAGCUCAACACAGCGUGGCAAAGUGGCUGUGGCUAGACUGCCUCUCUGGAUUCCUCGUCACUCAGCAGGGCUUCUCUGAGAGAAUUGCC,2.13
15,UACGUAGGUGGUUUUCCCCUGAUAGUGCUAAGGGGGCCUGGAAGUUUGGACUGGGCAGAGCUCAACACAGCGUGGCAAAGUGGCUGUGGCUAGACUGCCUCUCUGGAUUCCUCGUCACUCAGCAGGGCUUCUAUGAGAGAAAUGCC,1.26
16,UACGUAGGUGGUUUUCCCCUGAUAGUGCUAAGGGGGCCUGGAAGUUUGGACUGGGCAGAGCUCAACACAGCGUGGCAAAGUGGCUGUGGCUAGACUGCCUCUCUGGAUUCCUCGUCACUCAGCAGGGCUCCUCUGAGAGAAAUGCC,1.49
17,UACGUAGGUGGUUUUCCCCUGAUAGUGCUAAGGGGGCCUGGAAGUUUGGACUGGGCAGAGCUCAACACAGCGUGGCAAAGUGGCUGUGGCUAGACUGCCUCUCUGGAUUCCUCGUCACUCAGCAGGGCUUCACUGAGAGAAAUGCC,0.04
18,UACGUAGGUGGUUUUCCCCUGAUAGUGCUAAGGGGGCCUGGAAGUUUGGACUGGGCAGAGCUCAACACAGCGUGGCAAAGUGGCUGUGGCUAGACUGCCUCUCUGGAUUCCUCGUCACUCAGCAGGGCUUCCCUGAGAGAAAUGCC,1.3
19,UACGUAGGUGGUUUUCCCCUGAUAGUGCUAAGGGGGCCUGGAAGUUUGGACUGGGCAGAGCUCAACACAGCGUGGCAAAGUGGCUGUGGCUAGACUGCCUCUCUGGAUUCCUCGUCACUCAGCAGGGCUUCUCAGAGAGAAAUGCC,1.37
20,UACGUAGGUGGUUUUCCCCUGAUAGUGCUAAGGGGGCCUGGAAGUUUGGACUGGGCAGAGCUCAACACAGCGUGGCAAAGUGGCUGUGGCUAGACUGCCUCUCUGGAUUCCUCGUCACUCAGCAGGGCUUCUCCGAGAGAAAUGCC,1.22

row,Variant,self-cleavage
1,UACGUAGGUGGUUUUCCCCUGAUAGUGCUAAGGGGGCCUGGAAGUUUGGACUGGGCAGAGCUCAACACAGCGUGGCAAAGUGGCUGUGGCUAGACUGCCUCUCUGGAUUCCUCGUCACUCAGCAGGGCUUCUCGGAGAGAAAUGCC,1.53
2,UACGUAGGUGGUUUUCCCCUGAUAGUGCUAAGGGGGCCUGGAAGUUUGGACUGGGCAGAGCUCAACACAGCGUGGCAAAGUGGCUGUGGCUAGACUGCCUCUCUGGAUUCCUCGUCACUCAGCAGGGCUUCUCUGAGAGAAAAGCC,1.59
3,UACGUAGGUGGUUUUCCCCUGAUAGUGCUAAGGGGGCCUGGAAGUUUGGACUGGGCAGAGCUCAACACAGCGUGGCAAAGUGGCUGUGGCUAGACUGCCUCUCUGGAUUCCUCGUCACUCAGCAGGGCUUCUCUGAGAGAAACGCC,1.64
4,UACGUAGGUGGUUUUCCCCUGAUAGUGCUAAGGGGGCCUGGAAGUUUGGACUGGGCAGAGCUCAACACAGCGUGGCAAAGUGGCUGUGGCUAGACUGCCUCUCUGGAUUCCUCGUCACUCAGCAGGGCAACUCUGAGGGAAAUGCC,1.31
5,UACGUAGGUGGUUUUCCCCUGAUAGUGCUAAGGGGGCCUGGAAGUUUGGACUGGGCAGAGCUCAACACAGCGUGGCAAAGUGGCUGUGGCUAGACUGCCUCUCUGGAUUCCUCGUCACUCAGCAGGGCAACUCUGAGUGAAAUGCC,1.64
6,UACGUAGGUGGUUUUCCCCUGAUAGUGCUAAGGGGGCCUGGAAGUUUGGACUGGGCAGAGCUCAACACAGCGUGGCAAAGUGGCUGUGGCUAGACUGCCUCUCUGGAUUCCUCGUCACUCAGCAGGGCAACUCUGAGAGAGAUGCC,1.46
7,UACGUAGGUGGUUUUCCCCUGAUAGUGCUAAGGGGGCCUGGAAGUUUGGACUGGGCAGAGCUCAACACAGCGUGGCAAAGUGGCUGUGGCUAGACUGCCUCUCUGGAUUCCUCGUCACUCAGCAGGGCAACUCUGAGAGAUAUGCC,1.13
8,UACGUAGGUGGUUUUCCCCUGAUAGUGCUAAGGGGGCCUGGAAGUUUGGACUGGGCAGAGCUCAACACAGCGUGGCAAAGUGGCUGUGGCUAGACUGCCUCUCUGGAUUCCUCGUCACUCAGCAGGGCAACUCUGAGAGAAGUGCC,1.48
9,UACGUAGGUGGUUUUCCCCUGAUAGUGCUAAGGGGGCCUGGAAGUUUGGACUGGGCAGAGCUCAACACAGCGUGGCAAAGUGGCUGUGGCUAGACUGCCUCUCUGGAUUCCUCGUCACUCAGCAGGGCAACUCUGAGAGAAAUGUC,1.79
10,UACGUAGGUGGUUUUCCCCUGAUAGUGCUAAGGGGGCCUGGAAGUUUGGACUGGGCAGAGCUCAACACAGCGUGGCAAAGUGGCUGUGGCUAGACUGCCUCUCUGGAUUCCUCGUCACUCAGCAGGGCAACUCUGAAAGAAAUGCC,1.84
11,UACGUAGGUGGUUUUCCCCUGAUAGUGCUAAGGGGGCCUGGAAGUUUGGACUGGGCAGAGCUCAACACAGCGUGGCAAAGUGGCUGUGGCUAGACUGCCUCUCUGGAUUCCUCGUCACUCAGCAGGGCAACCCUGAGAGAAAUGCC,1.41
12,UACGUAGGUGGUUUUCCCCUGAUAGUGCUAAGGGGGCCUGGAAGUUUGGACUGGGCAGAGCUCAACACAGCGUGGCAAAGUGGCUGUGGCUAGACUGCCUCUCUGGAUUCCUCGUCACUCAGCAGGGCAACUCAGAGAGAAAUGCC,1.33
13,UACGUAGGUGGUUUUCCCCUGAUAGUGCUAAGGGGGCCUGGAAGUUUGGACUGGGCAGAGCUCAACACAGCGUGGCAAAGUGGCUGUGGCUAGACUGCCUCUCUGGAUUCCUCGUCACUCAGCAGGGCAACUCCGAGAGAAAUGCC,1.84
14,UACGUAGGUGGUUUUCCCCUGAUAGUGCUAAGGGGGCCUGGAAGUUUGGACUGGGCAGAGCUCAACACAGCGUGGCAAAGUGGCUGUGGCUAGACUGCCUCUCUGGAUUCCUCGUCACUCAGCAGGGCAACUCUGAGAGAAACGCC,1.25
15,UACGUAGGUGGUUUUCCCCUGAUAGUGCUAAGGGGGCCUGGAAGUUUGGACUGGGCAGAGCUCAACACAGCGUGGCAAAGUGGCUGUGGCUAGACUGCCUCUCUGGAUUCCUCGUCACUCAGCAGGGCACCUCUGGGAGAAAUGCC,1.66
16,UACGUAGGUGGUUUUCCCCUGAUAGUGCUAAGGGGGCCUGGAAGUUUGGACUGGGCAGAGCUCAACACAGCGUGGCAAAGUGGCUGUGGCUAGACUGCCUCUCUGGAUUCCUCGUCACUCAGCAGGGCACCUCUGAGGGAAAUGCC,1.75
17,UACGUAGGUGGUUUUCCCCUGAUAGUGCUAAGGGGGCCUGGAAGUUUGGACUGGGCAGAGCUCAACACAGCGUGGCAAAGUGGCUGUGGCUAGACUGCCUCUCUGGAUUCCUCGUCACUCAGCAGGGCACCUCUGAGUGAAAUGCC,1.36
18,UACGUAGGUGGUUUUCCCCUGAUAGUGCUAAGGGGGCCUGGAAGUUUGGACUGGGCAGAGCUCAACACAGCGUGGCAAAGUGGCUGUGGCUAGACUGCCUCUCUGGAUUCCUCGUCACUCAGCAGGGCACCUCUGAGAGGAAUGCC,1.49
19,UACGUAGGUGGUUUUCCCCUGAUAGUGCUAAGGGGGCCUGGAAGUUUGGACUGGGCAGAGCUCAACACAGCGUGGCAAAGUGGCUGUGGCUAGACUGCCUCUCUGGAUUCCUCGUCACUCAGCAGGGCACCUCUGAGAGUAAUGCC,0.32
